Drawing on publication PMC3579926, this text covers stoichiometry N for 3 substances.

In general, stoichiometry N refers to the number of molecules, sites or subunits per partner or assembly.

Common to all, as to test: SEC; Superdex 200 (10/300), 4°C, protein at 1 mg/mL, 20 mM HEPES-NaOH pH 7.5, 1.0 M NaCl, 20 µM ZnCl2, 5 mM β-mercaptoethanol; dimer, and dimer to tetramer
For orientation: SEC sorts molecules by how far they enter the pores of the column.

The target in assay [1] is RSV IN(1–270) (Rous sarcoma virus (Prague A strain)).
Assay [2] concerns the target RSV IN(49–270) (Rous sarcoma virus (Prague A strain)).
The target in assay [3] is RSV IN(1–270)•C23S (Rous sarcoma virus (Prague A strain)).

Where “and” joins values, the source holds several entries; their conditions need not be identical. Identical values can stand only once.

Regarding RSV IN(1–270) (domain or fragment), the stoichiometry N in assay [1] was 2 and 4.

For RSV IN(49–270) (domain or fragment), the stoichiometry N in assay [2] is 2.

RSV IN(1–270)•C23S (domain or fragment) returned a stoichiometry N in assay [3] of 2.
